Changes are numbered by the printed parent chain.
T1: human ZnT8-His (human, UniProt Q8IWU4-2 1-320, limits assumed)
T1 construct: Over-expressed in HEK293 cells, solubilized with DDM and immobilized on Ni-NTA plates (native or unfolded with 2% SDS), or SDS-denatured on immunoblots; also called human ZnT8 with C-terminal poly-histidine tag; not shown: C-terminal poly-histidine tag
T1 sequence (looked up): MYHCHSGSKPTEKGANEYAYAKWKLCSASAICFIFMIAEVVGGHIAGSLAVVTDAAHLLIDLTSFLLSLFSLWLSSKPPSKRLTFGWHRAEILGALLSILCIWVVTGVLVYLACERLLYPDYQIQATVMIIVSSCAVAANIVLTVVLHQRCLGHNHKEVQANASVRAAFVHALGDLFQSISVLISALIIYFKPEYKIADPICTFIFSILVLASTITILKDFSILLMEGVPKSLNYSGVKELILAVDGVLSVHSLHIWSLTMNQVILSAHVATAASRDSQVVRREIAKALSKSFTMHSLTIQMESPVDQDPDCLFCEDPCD

T2: human ZnT8 over-expressed in HEK293 cells (human, UniProt Q8IWU4 1-369)
T2 construct: whole, on cells; Cells were fixed and permeabilized for immunofluorescence and flow cytometry (intracellular staining); The same id is used for the detergent lysates of over-expressing cells in the HTRF assay; also called ZnT8(+) HEK293 cells; HEK293 cells stably expressing human ZnT8
T2 sequence (looked up): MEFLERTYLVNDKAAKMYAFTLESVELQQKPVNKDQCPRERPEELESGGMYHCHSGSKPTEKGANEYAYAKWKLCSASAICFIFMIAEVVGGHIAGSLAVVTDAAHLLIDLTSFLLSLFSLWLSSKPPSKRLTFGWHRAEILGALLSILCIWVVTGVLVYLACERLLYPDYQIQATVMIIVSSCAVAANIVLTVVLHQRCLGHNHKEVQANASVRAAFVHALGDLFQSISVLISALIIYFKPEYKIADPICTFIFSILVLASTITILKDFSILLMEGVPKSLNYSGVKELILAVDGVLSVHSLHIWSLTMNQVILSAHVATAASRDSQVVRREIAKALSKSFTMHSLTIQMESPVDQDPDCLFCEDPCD

B1: mAb20 (antibody, V domains shown)
VH: QIQLVQSGPELKKPGETVKISCKASGYIFTNYPMHWVKQAPGKGLKWMGWINTYSGVPTHADDFKGRFAFSLETSANSAFLQINNLKNEDTATYFCTRSRITPTGGYAMDYWGQGTSVTVSS
VL: DVVMTQTPLSLPVSLGDQASISCRSSQSLVHSNGNTYLHWYLQKPGQSPNLLISKVSNRFSGVPERFSGSGSGTDFTLKISRVEAEDLGVYFCSQNTHVPWTFGGGTKLEIKR
notes: Mouse hybridoma mAb purified on protein A/G; In some assays it was labelled with Alexa Fluor 488 or terbium cryptate; also called monoclonal antibody mAb20; anti-ZnT8 mAb20
B2: mAb39 (antibody, V domains shown)
VH: QVQLQQPGAELVKPGASVKLSCKASGYSFTTYWMHWVKQRPGQGLEWVGDINPRNGRTNYNEKSKSKATLTVDISSSTVYMQVSSLTSEDSAVYYCAIWSGAMDYWGPGTSVTVSS
VL: B1 VL with A19P, R24K, S32N, N50K, S54Y, E65D, N96T, W101P
notes: Mouse hybridoma mAb purified on protein A/G; In some assays it was labelled with Alexa Fluor 555 or d2; also called monoclonal antibody mAb39; anti-ZnT8 mAb39

Experiments:
[1] = target: T1, human ZnT8-His; test: ELISA titration on ZnT8-His immobilized on Ni-NTA plate; apparent binding affinity, one-component fit; DDM-solubilized human ZnT8 immobilized to Ni-NTA plate via His-tag; mAb titration
Description: FIG. 7A-7D. mAb binding specificities (FIG. 7A) mAb binding to ZnT8-His immobilized to Ni-NTA plate. Bound mAb20 (red) or mAb39 (magenta) was detected by an HRP-conjugated secondary antibody. Solid lines are least-squares fits of binding datapoints to a one-component binding process. Error bars are standard errors (n=8). (FIG. 7B) SDS-denatured mouse ZnT8-His (labeled as M) and human ZnT8-His (labeled as H) on immunoblots were detected by mAb20 or mAb39 as indicated. […] (FIG. 7C) Detection of endogenous human ZnT8 in EndoC-βH cells by mAb20 or […] immunoblotting. An equal amount of EndoC-βH lysate (5 μg total protein) was loaded to each lane. (FIG. 7D) Immunoblotting of HEK lysates with or with over-expression of a ZnT homolog as indicated. An approximately equal amount of total lysate protein (5 μg) was located to each lane, probed by either mAb20, mAb39, or anti-FALG antibody as indicated. FIG. 8. HTRF response to human ZnT8, mouse ZnT8 and human ZnT3.
Binding specificities. […] Of note, the epitope-masking effect of ZnT8 immobilization weakened the apparent binding affinities of both mAbs as compared to the affinities determined by flow-cytometry, and such a weakening effect was more pronounced for mAb39, probably due to a closer proximity of the mAb39 epitope to the C-terminal His-tag. Next, we compared the immunoreactivities of mAbs to denatured ZnT8.

[2] = target: T2, human ZnT8 over-expressed in HEK293 …; test: flow cytometry, serial mAb dilutions on fixed, permeabilized HEK293 cells stably expressing human ZnT8; one-component fit
Description: FIG. 6A-6C. mAb binding affinity. (FIG. 6A) Representative confocal microscopy images of immunofluorescence staining of fixed and saponin-permeabilized HEK293 cells with mAb20 or mAb39 staining as indicated. ZnT8(+) or ZnT8(−) denotes HEK293 cells w/o ZnT8 over-expression. Red: mAb20 or mAb39 staining, blue: DAPI, scale bar: 5 um. (FIG. 6B) Histograms of flow cytometry counting events. Arrows indicate leftward shifts of the histogram as a result of mAb serial dilutions. (FIG. 6C) mAb binding to HEK293 cells w/o ZnT8 overexpression as indicated. Immunofluorescence intensities of mAb20 or mAb39 labeling in serial dilutions were obtained from (FIG. 6B). Solid lines are least-squares fits of the binding data to a one-component binding process.
Flow cytometry analysis. HEK293 cells w/o ZnT8 over-expression were fixed, permeabilized, and resuspended in PBS plus 5% BSA at a density of 1×10⁶/ml as described previously (43). Aliquots of 100 μl cell suspension were stained with mAb20 or mAb39 in 3-fold serial dilutions for 2 hours at RT, and then stained with Alexa fluor 647-conjugated donkey-anti-mouse secondary antibody in 1:1000 dilution with 5% BSA (Thermo Fisher Scientific, cat. #A31571). The labeled cells were analyzed immediately by flow cytometry. […]
Binding affinity. […] No mAb staining was detected in parental HEK293 cells without ZnT8 over-expression. […]

Binder	Kd [1]	Kd [2]
B1	2.5 nM	0.8 nM
B2	17.6 nM	0.7 nM
